According to article PMC12403168, “Revisiting the co-crystal structure of a DNA glycosylase with photocaged substrate: a suitable time-resolved crystallography target?”:

Assays:
[1] = target: T1, hOgg1 N149C (8-oxoguanine DNA glycosylase) (Homo sapiens, UniProt O15527 12-327, N149C); assay: X-ray crystallography; disulfide cross-linked complex, dark (G*Odark), 2.81 A; Complex formation: 20 mM Tris-HCl, 100 mM NaCl, 1 mM EDTA pH 7.4, on ice overnight (12 nmol DNA, 24 nmol protein in 1.2 ml); purified by anion exchange and SEC; crystallized at 13 mg/ml; details: protein: recombinant; tags: His-tag (pET28a, NdeI/XhoI); 5' overhang 1 nt on each strand
T1 sequence (O15527 12-327 N149C): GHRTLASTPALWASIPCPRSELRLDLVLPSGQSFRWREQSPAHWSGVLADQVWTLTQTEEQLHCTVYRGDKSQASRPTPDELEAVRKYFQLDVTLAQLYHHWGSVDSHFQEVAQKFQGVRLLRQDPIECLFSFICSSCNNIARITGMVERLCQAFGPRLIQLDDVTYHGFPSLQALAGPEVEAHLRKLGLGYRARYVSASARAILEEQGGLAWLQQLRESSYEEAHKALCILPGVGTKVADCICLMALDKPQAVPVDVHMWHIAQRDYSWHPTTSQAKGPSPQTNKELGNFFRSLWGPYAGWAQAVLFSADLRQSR

[2] = target: T1, hOgg1 N149C (8-oxoguanine DNA …); assay: X-ray crystallography; disulfide cross-linked complex, illuminated 365 nm (95 J) and cryotrapped (G*Olight), oG in active site at 68% occupancy, Ca2+ present, 2.48 A; Complex formation: 20 mM Tris-HCl, 100 mM NaCl, 1 mM EDTA pH 7.4, on ice overnight (12 nmol DNA, 24 nmol protein in 1.2 ml); purified by anion exchange and SEC; crystallized at 13 mg/ml; details: protein: recombinant; tags: His-tag (pET28a, NdeI/XhoI); 5' overhang 1 nt on each strand

Binder	binding result [1]	binding result [2]
oG*/C‡ duplex (Table S1 entries 3 and 5) (dsDNA, strand 1 G9 = photocaged 8-oxoguanine (oG*); strand 2 C9 = N4-modified cytosine (C‡) for disulfide cross-linking) DNA 1: AGCGTCCAGGTCTACC DNA 2: TGGTAGACCTGGACGC	binds	–
oG/C‡ duplex, uncaged in crystallo by 365 nm light (dsDNA, strand 1 G9 = 8-oxoguanine (oG) after photodeprotection; strand 2 C9 = N4-modified cytosine (C‡), disulfide to Cys149) DNA 1: AGCGTCCAGGTCTACC DNA 2: TGGTAGACCTGGACGC	–	binds
